The record followed here is patent US20200408770A1 (NITTO BOSEKI, published 2020).

In experiment [1] the target is T1, Ki-67 antigen (MKI67: Marker Of Proliferation Ki-67) (human, UniProt P46013 1-3256).
T1 construct: Formalin-crosslinked and possibly partly cleaved; also called K-67
Description: flow cytometry, formalin-fixed T47D cells, thrombin treatment done; share of nuclei above the 95 percentile of the isotype control. Background: A flow cytometer gives signals particle by particle.

For experiment [2], the target named is T1, Ki-67 antigen (MKI67: Marker Of …). As to the kind of experiment: flow cytometry, formalin-fixed SKBr3 cells, thrombin treatment done; share of nuclei above the 95 percentile of the isotype control.
Experiment [3] has the same target. Description: flow cytometry, formalin-fixed T47D cells, thrombin treatment not done; share of nuclei above the 95 percentile of the isotype control.
The target is the same in experiment [4]. As to the kind of experiment: flow cytometry, formalin-fixed SKBr3 cells, thrombin treatment not done; share of nuclei above the 95 percentile of the isotype control.
Experiment [5] has the same target. Description: flow cytometry, formalin-fixed MDA-MB-231 cells, thrombin treatment done; share of nuclei above the 95 percentile of the isotype control.
Experiment [6] has the same target. Description: flow cytometry, formalin-fixed MDA-MB-231 cells, thrombin treatment not done; share of nuclei above the 95 percentile of the isotype control.

T1 sequence (P46013 whole entry): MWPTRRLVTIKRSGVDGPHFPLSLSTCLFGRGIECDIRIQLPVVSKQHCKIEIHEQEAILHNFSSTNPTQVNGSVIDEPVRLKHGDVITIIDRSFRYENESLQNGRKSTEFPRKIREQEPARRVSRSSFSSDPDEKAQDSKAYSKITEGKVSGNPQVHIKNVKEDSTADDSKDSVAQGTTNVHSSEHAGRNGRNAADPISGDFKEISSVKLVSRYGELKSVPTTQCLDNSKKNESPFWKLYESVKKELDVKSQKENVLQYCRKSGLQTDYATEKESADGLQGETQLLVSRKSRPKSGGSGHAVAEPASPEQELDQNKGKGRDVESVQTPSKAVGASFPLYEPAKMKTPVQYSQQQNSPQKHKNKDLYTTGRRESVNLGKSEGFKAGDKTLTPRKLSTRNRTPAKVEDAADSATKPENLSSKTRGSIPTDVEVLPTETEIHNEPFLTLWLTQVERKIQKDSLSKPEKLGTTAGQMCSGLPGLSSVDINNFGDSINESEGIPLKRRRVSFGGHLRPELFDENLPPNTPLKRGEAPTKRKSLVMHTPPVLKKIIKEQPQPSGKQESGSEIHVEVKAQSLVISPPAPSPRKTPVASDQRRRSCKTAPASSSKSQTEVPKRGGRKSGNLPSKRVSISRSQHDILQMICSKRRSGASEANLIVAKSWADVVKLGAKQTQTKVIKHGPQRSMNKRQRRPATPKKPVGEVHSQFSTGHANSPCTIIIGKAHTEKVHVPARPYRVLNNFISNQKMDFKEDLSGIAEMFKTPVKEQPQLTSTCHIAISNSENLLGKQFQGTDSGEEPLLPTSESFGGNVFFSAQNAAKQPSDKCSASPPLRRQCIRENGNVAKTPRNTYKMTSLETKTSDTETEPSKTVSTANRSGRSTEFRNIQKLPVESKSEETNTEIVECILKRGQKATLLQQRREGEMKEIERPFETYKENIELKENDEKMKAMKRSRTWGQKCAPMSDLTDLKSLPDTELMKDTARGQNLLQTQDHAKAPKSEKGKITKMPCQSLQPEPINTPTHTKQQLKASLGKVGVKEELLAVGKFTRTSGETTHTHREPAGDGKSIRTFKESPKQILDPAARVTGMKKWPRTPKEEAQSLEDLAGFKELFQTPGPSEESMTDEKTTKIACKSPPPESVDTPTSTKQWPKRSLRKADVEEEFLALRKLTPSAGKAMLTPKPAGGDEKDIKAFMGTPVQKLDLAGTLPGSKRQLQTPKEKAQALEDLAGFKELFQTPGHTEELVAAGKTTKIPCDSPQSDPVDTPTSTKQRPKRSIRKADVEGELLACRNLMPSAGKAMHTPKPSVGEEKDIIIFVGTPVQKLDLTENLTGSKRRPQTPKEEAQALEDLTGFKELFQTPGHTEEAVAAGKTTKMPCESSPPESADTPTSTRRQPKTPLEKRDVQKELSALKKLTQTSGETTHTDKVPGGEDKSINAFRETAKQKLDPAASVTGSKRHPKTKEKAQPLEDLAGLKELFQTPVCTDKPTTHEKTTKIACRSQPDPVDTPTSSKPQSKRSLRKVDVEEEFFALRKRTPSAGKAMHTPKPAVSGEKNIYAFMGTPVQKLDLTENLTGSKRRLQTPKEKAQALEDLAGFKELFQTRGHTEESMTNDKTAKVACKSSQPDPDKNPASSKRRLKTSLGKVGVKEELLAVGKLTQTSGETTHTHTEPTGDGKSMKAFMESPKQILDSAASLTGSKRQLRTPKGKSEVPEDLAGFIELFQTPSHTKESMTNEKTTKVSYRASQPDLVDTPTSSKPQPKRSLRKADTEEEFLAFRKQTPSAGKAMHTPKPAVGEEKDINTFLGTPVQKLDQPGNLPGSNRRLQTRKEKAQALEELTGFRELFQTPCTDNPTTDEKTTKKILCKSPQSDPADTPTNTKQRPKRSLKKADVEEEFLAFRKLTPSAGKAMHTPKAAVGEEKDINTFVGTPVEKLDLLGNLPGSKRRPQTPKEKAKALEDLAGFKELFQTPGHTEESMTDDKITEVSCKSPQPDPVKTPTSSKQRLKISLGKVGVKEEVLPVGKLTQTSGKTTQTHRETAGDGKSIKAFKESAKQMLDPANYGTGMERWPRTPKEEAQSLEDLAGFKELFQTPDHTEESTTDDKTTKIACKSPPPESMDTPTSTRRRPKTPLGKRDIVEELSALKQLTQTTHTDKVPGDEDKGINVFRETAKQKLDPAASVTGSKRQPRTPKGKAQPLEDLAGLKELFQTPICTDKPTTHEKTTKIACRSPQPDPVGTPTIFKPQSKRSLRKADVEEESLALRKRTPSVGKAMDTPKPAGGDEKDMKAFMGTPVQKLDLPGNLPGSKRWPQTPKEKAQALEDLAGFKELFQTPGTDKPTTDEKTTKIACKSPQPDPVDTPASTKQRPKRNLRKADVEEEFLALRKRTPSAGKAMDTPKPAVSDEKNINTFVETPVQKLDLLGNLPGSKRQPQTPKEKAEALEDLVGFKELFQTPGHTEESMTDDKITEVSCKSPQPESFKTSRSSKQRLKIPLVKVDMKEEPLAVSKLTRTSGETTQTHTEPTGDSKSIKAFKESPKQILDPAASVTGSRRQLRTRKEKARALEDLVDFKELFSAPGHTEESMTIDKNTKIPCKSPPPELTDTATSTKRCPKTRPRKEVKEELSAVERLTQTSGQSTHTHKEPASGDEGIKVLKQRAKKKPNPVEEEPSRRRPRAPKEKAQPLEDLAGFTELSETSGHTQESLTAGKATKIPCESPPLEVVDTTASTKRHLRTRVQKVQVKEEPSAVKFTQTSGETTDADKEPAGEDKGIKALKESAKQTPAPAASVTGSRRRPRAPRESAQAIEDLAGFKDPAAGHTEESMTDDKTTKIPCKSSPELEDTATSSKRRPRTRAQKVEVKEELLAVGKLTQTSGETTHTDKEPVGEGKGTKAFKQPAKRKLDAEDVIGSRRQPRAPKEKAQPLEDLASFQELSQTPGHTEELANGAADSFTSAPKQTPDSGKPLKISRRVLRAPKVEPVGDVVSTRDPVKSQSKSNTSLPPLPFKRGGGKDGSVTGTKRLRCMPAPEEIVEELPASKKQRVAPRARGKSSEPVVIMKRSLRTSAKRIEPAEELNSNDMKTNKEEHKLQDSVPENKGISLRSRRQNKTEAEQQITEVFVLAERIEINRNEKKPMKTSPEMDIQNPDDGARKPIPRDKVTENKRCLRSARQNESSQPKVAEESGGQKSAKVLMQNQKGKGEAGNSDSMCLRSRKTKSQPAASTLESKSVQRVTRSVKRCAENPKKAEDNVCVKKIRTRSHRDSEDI

B1: Ki-67 antibody (Dako, clone: MIB-1, mouse monoclonal antibody) (antibody, V domains shown)
VH: EVQLQESGPGILQPSQTLSLTCSFSSYHFGDIVGWIRQPSGKGLEWLAHNWKDINDNKYNTALKSRLTISKDTSNNQVFLKIASVDTADTATYYCASYGHYDHWGQGSTLTVSS
VL: DIVMTQSPLSLPVSLGDQASISCRSSSQSVINGQSNYLEWYLQKPGQSPKLLIYLVSNRFSGVPDRFSGSGSGTDFTLKISRVEAEDLGVYYCFQSGVHWPTFGGGTKL
For B1, the Ki-67-positive ratio worked out at 37.3 in experiment [1]; 19.8 in experiment [2]; 24.3 in experiment [3]; 6.52 in experiment [4]; 39.9 in experiment [5]; 33.1 in experiment [6].
